Results: patent US20130177981A1 (WISCONSIN ALUMNI RESEARCH FOUNDATION, published 2013)
Read-outs that look alike come from different tables or passages of the source. [ ]: non-standard residue; d: D form. APC = trans-3-aminopyrrolidine-4-carboxylic acid; ACPC = trans-2-aminocyclopentanecarboxylic acid; β3hT = C[C@@H](O)[C@H](N)CC(=O)O; β3hE = N[C@@H](CCC(=O)O)CC(=O)O

B1: chimeric α+α/β foldamer 13 (peptide)
peptide: Ac-TTWEAWDRAIA[β3hE]YA[ACPC]RIE[ACPC]LI[APC]AAQ[β3hE]QQ[β3hE]KNE[ACPC]AL[APC]EL-NH2
modifications: not fully specified
notes: the difference must lie in β3-residues whose bold type is lost; also called compound 13; peptide 13
B2: chimeric CHR α/β-peptide 8 (peptide)
peptide: Ac-TTWEAWDRAIAEYA[ACPC]RIE[ACPC]LI[APC]AAQ[β3hE]QQ[β3hE]KNE[ACPC]AL[APC]EL-NH2
modifications: not fully specified
notes: Made from 7 by replacing two β3-hArg residues with APC

Columns and labels:
[1] = molecular target: T1, gp41-5 (HIV); assay: competition FP; displacement of Flu-C38 from gp41-5
T1 construct: also called gp41-5 protein construct; five-helix bundle protein

[2] = molecular target: T1, gp41-5; assay: as above; remark: listed apart in the source
Description: Competition fluorescence polarization assays were conducted in black 96-well plates. […] A second stock plate was prepared containing serial dilutions of peptide inhibitors in DMSO. The peptide stock solutions were transferred to the assay plate (1 μL per well). […] All experimental conditions were carried out in duplicate, and each peptide was assayed in 2-3 independent experiments. Data analysis was carried out in GraphPad Prism. Raw mP data from each experiment were fit to a sigmoidal dose response and normalized to the resulting parameters for the top and bottom of the curve. All experiments included at least one compound showing complete inhibition at the highest concentrations tested. Normalized data from multiple independent runs of the each oligomer were combined and globally fit to an exact analytical expressions for FP competitive binding with Kᵢ as the only floating parameter.

Row | Binder | Ki [1] [pM] | Ki [2] [pM]
1 | Ac-[β3hT]TWE[ACPC]WD[APC]AIA[β3hE]YA[ACPC]RIE[ACPC]LI[APC]AAQEQQEKNEAALREL-NH2 (not fully specified, also called compound 15) [chimeric α+α/β foldamer 15] | 200 | –
2 | Ac-[β3hT]TWE[ACPC]WD[APC]AIA[β3hE]YAARIEALIRAAQ[β3hE]QQ[β3hE]KNE[ACPC]AL[APC]EL-NH2 (not fully specified, also called compound 14) [chimeric α+α/β foldamer 14] | 1400 | –
3 | B1 | 800 | –
4 | B2 | – | 300
5 | Ac-TTWEAWD[APC]AIA[β3hE]YA[ACPC]RIE[ACPC]LI[APC]AAQ[β3hE]QQ[β3hE]KNE[ACPC]AL[APC]EL-NH2 (not fully specified, also called compound 12; peptide 12) [chimeric α+α/β foldamer 12] | 8000 | –
